Source: patent US20210147507A1, “METHODS TO AUGMENT OR ALTER SIGNAL TRANSDUCTION” (Bellicum Pharmaceuticals, Inc., priority 2017, published 2021)

Test system: chimeric Caspase-9 polypeptide
Test: Caspase-9 mutant classes and basal activity (Table 5)
Format: cell-based
Settings: Caspase-9 mutant class; for Basal Activity: basal (ligand-independent) signaling compared with unmodified chimeric Caspase-9; for IC50: ligand IC50 compared with unmodified chimeric Caspase-9
Text: Even though homo-dimerization of wild-type initiator Caspase-9 is energetically unfavorable, making them mostly monomers in solution [14-16], the low-level inherent basal activity of unprocessed Caspase-9 [15, 17] is enhanced in the presence of the Apaf-1-based “apoptosome”, its natural allosteric regulator [6]. Moreover, supra-physiological expression levels and/or co-localization could lead to proximity-driven dimerization, further enhancing basal activation. The modified cells of the present application may comprise nucleic acids coding for a chimeric Caspase-9 polypeptide having lower basal signaling activity. Polynucleotides comprising Caspase-9 mutants with lower basal signaling may be expressed in the modified cells used for cell therapy herein. In these examples, the modified cells may include a safety switch, comprising a polynucleotide encoding a lower basal signaling chimeric Caspase-9 polypeptide. In the event of an adverse event following administration of the modified cells comprising the chimeric signaling polypeptides or chimeric antigen receptors herein, Caspase-9 activity may be induced by administering the dimerizer to the patient, thus inducing apoptosis and clearance of some, or all of the modified cells. In some examples, the amount of dimerizer administered may be determined as an amount designed to remove the highest amount, at least 80% or 90% of the modified cells. In other examples, the amount of dimerizer administered may be determined as an amount designed to remove only a portion of the modified cells, in order to alleviate negative symptoms or conditions, while leaving a sufficient amount of therapeutic modified cells in the patient, in order to continue therapy. Methods for using chimeric Caspase-9 polypeptides to induce apoptosis are discussed in PCT Application Number PCT/US2011/037381 by Malcolm K. Brenner et al., titled Methods for Inducing Selective Apoptosis, filed May 20, 2011, and in U.S. patent application Ser. No. 13/112,739 by Malcolm K. Brenner et al., titled Methods for Inducing Selective Apoptosis, filed May 20, 2011, issued Jul. 28, 2015 as U.S. Pat. No. 9,089,520. Chimeric caspase polypeptides having modified basal activity are discussed in PCT Application Serial Number PCT/US2014/022004 by David Spencer et al., titled Modified Caspase Polypeptides and Uses Thereof, filed Mar. 7, 2014, published Oct. 9, 2014 as WO2014/164348, and in U.S. patent application Ser. No. 13/792,135 by David Spencer et al., titled Modified Caspase Polypeptides and Uses Thereof, filed Mar. 7, 2014; and in U.S. patent application Ser. No. 14/640,553 by Spencer et al., filed Mar. 6, 2015. Methods for inducing partial apoptosis of the therapeutic modified cells are discussed in PCT Application Number PCT/US14/040964 by Kevin Slawin et al., titled Methods for Inducing Partial Apoptosis Using Caspase Polypeptides, filed Jun. 4, 2014, published Dec. 11, 2014 as WO2014/197638, and in U.S. patent application Ser. No. 14/296,404 by Kevin Slawin et al., titled Methods for Inducing Partial Apoptosis Using Caspase Polypeptides, filed Jun. 4, 2014. These patent applications and publications are all incorporated by reference herein in their entireties.

Chain of chimeric Caspase-9 polypeptide (P62942 2-108 F37V limits assumed): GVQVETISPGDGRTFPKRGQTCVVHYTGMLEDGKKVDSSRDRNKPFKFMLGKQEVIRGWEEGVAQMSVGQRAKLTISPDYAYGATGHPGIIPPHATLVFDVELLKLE

| Basal Activity | IC50 | Molecule |
| --- | --- | --- |
| Decreased | higher IC50 | N405Q (protein) GFGDVGALESLRGNADLAYILSMEPCGHCLIINNVNFCRESGLRTRTGSNIDCEKLRRRFSSLHFMVEVKGDLTAKKMVLALLELARQDHGALDCCVVVILSHGCQASHLQFPGAVYGTDGCPVSVEKIVNIFNGTSCPSLGGKPKLFFIQACGGEQKDHGFEVASTSPEDESPGSNPEPDATPFQEGLRTFDQLDAISSLPTPSDIFVSYSTFPGFVSWRDPKSGSWYVETLDDIFEQWAHSEDLQSLLLRVANAVSVKGIYKQMPGCFQFLRKKLFFKTSASRA |
| Decreased | higher IC50 | L329E (protein) GFGDVGALESLRGNADLAYILSMEPCGHCLIINNVNFCRESGLRTRTGSNIDCEKLRRRFSSLHFMVEVKGDLTAKKMVLALLELARQDHGALDCCVVVILSHGCQASHLQFPGAVYGTDGCPVSVEKIVNIFNGTSCPSLGGKPKLFFIQACGGEQKDHGFEVASTSPEDESPGSNPEPDATPFQEGLRTFDQEDAISSLPTPSDIFVSYSTFPGFVSWRDPKSGSWYVETLDDIFEQWAHSEDLQSLLLRVANAVSVKGIYKQMPGCFNFLRKKLFFKTSASRA |
| Decreased | higher IC50 | S183A (protein) GFGDVGALESLRGNADLAYILSMEPCGHCLIINNVNFCRESGLRTRTGANIDCEKLRRRFSSLHFMVEVKGDLTAKKMVLALLELARQDHGALDCCVVVILSHGCQASHLQFPGAVYGTDGCPVSVEKIVNIFNGTSCPSLGGKPKLFFIQACGGEQKDHGFEVASTSPEDESPGSNPEPDATPFQEGLRTFDQLDAISSLPTPSDIFVSYSTFPGFVSWRDPKSGSWYVETLDDIFEQWAHSEDLQSLLLRVANAVSVKGIYKQMPGCFNFLRKKLFFKTSASRA |
| Decreased | higher IC50 | D330A-S144A (protein) GFGDVGALEALRGNADLAYILSMEPCGHCLIINNVNFCRESGLRTRTGSNIDCEKLRRRFSSLHFMVEVKGDLTAKKMVLALLELARQDHGALDCCVVVILSHGCQASHLQFPGAVYGTDGCPVSVEKIVNIFNGTSCPSLGGKPKLFFIQACGGEQKDHGFEVASTSPEDESPGSNPEPDATPFQEGLRTFDQLAAISSLPTPSDIFVSYSTFPGFVSWRDPKSGSWYVETLDDIFEQWAHSEDLQSLLLRVANAVSVKGIYKQMPGCFNFLRKKLFFKTSASRA |
| Decreased | higher IC50 | D330A-N405Q (protein) GFGDVGALESLRGNADLAYILSMEPCGHCLIINNVNFCRESGLRTRTGSNIDCEKLRRRFSSLHFMVEVKGDLTAKKMVLALLELARQDHGALDCCVVVILSHGCQASHLQFPGAVYGTDGCPVSVEKIVNIFNGTSCPSLGGKPKLFFIQACGGEQKDHGFEVASTSPEDESPGSNPEPDATPFQEGLRTFDQLAAISSLPTPSDIFVSYSTFPGFVSWRDPKSGSWYVETLDDIFEQWAHSEDLQSLLLRVANAVSVKGIYKQMPGCFQFLRKKLFFKTSASRA |
| Decreased | higher IC50 | D330A-S144D (protein) GFGDVGALEDLRGNADLAYILSMEPCGHCLIINNVNFCRESGLRTRTGSNIDCEKLRRRFSSLHFMVEVKGDLTAKKMVLALLELARQDHGALDCCVVVILSHGCQASHLQFPGAVYGTDGCPVSVEKIVNIFNGTSCPSLGGKPKLFFIQACGGEQKDHGFEVASTSPEDESPGSNPEPDATPFQEGLRTFDQLAAISSLPTPSDIFVSYSTFPGFVSWRDPKSGSWYVETLDDIFEQWAHSEDLQSLLLRVANAVSVKGIYKQMPGCFNFLRKKLFFKTSASRA |
| Decreased | higher IC50 | D330G (protein) GFGDVGALESLRGNADLAYILSMEPCGHCLIINNVNFCRESGLRTRTGSNIDCEKLRRRFSSLHFMVEVKGDLTAKKMVLALLELARQDHGALDCCVVVILSHGCQASHLQFPGAVYGTDGCPVSVEKIVNIFNGTSCPSLGGKPKLFFIQACGGEQKDHGFEVASTSPEDESPGSNPEPDATPFQEGLRTFDQLGAISSLPTPSDIFVSYSTFPGFVSWRDPKSGSWYVETLDDIFEQWAHSEDLQSLLLRVANAVSVKGIYKQMPGCFNFLRKKLFFKTSASRA |
| Decreased | higher IC50 | D330V (protein) GFGDVGALESLRGNADLAYILSMEPCGHCLIINNVNFCRESGLRTRTGSNIDCEKLRRRFSSLHFMVEVKGDLTAKKMVLALLELARQDHGALDCCVVVILSHGCQASHLQFPGAVYGTDGCPVSVEKIVNIFNGTSCPSLGGKPKLFFIQACGGEQKDHGFEVASTSPEDESPGSNPEPDATPFQEGLRTFDQLVAISSLPTPSDIFVSYSTFPGFVSWRDPKSGSWYVETLDDIFEQWAHSEDLQSLLLRVANAVSVKGIYKQMPGCFNFLRKKLFFKTSASRA |
| Decreased | higher IC50 | D330N (protein) GFGDVGALESLRGNADLAYILSMEPCGHCLIINNVNFCRESGLRTRTGSNIDCEKLRRRFSSLHFMVEVKGDLTAKKMVLALLELARQDHGALDCCVVVILSHGCQASHLQFPGAVYGTDGCPVSVEKIVNIFNGTSCPSLGGKPKLFFIQACGGEQKDHGFEVASTSPEDESPGSNPEPDATPFQEGLRTFDQLNAISSLPTPSDIFVSYSTFPGFVSWRDPKSGSWYVETLDDIFEQWAHSEDLQSLLLRVANAVSVKGIYKQMPGCFNFLRKKLFFKTSASRA |
| Decreased | higher IC50 | S195A (protein) GFGDVGALESLRGNADLAYILSMEPCGHCLIINNVNFCRESGLRTRTGSNIDCEKLRRRFASLHFMVEVKGDLTAKKMVLALLELARQDHGALDCCVVVILSHGCQASHLQFPGAVYGTDGCPVSVEKIVNIFNGTSCPSLGGKPKLFFIQACGGEQKDHGFEVASTSPEDESPGSNPEPDATPFQEGLRTFDQLDAISSLPTPSDIFVSYSTFPGFVSWRDPKSGSWYVETLDDIFEQWAHSEDLQSLLLRVANAVSVKGIYKQMPGCFNFLRKKLFFKTSASRA |
| Decreased | higher IC50 | S196A (protein) GFGDVGALESLRGNADLAYILSMEPCGHCLIINNVNFCRESGLRTRTGSNIDCEKLRRRFSALHFMVEVKGDLTAKKMVLALLELARQDHGALDCCVVVILSHGCQASHLQFPGAVYGTDGCPVSVEKIVNIFNGTSCPSLGGKPKLFFIQACGGEQKDHGFEVASTSPEDESPGSNPEPDATPFQEGLRTFDQLDAISSLPTPSDIFVSYSTFPGFVSWRDPKSGSWYVETLDDIFEQWAHSEDLQSLLLRVANAVSVKGIYKQMPGCFNFLRKKLFFKTSASRA |
| Decreased | higher IC50 | T317A (protein) GFGDVGALESLRGNADLAYILSMEPCGHCLIINNVNFCRESGLRTRTGSNIDCEKLRRRFSSLHFMVEVKGDLTAKKMVLALLELARQDHGALDCCVVVILSHGCQASHLQFPGAVYGTDGCPVSVEKIVNIFNGTSCPSLGGKPKLFFIQACGGEQKDHGFEVASTSPEDESPGSNPEPDAAPFQEGLRTFDQLDAISSLPTPSDIFVSYSTFPGFVSWRDPKSGSWYVETLDDIFEQWAHSEDLQSLLLRVANAVSVKGIYKQMPGCFNFLRKKLFFKTSASRA |
| Decreased | higher IC50 | D330S (protein) GFGDVGALESLRGNADLAYILSMEPCGHCLIINNVNFCRESGLRTRTGSNIDCEKLRRRFSSLHFMVEVKGDLTAKKMVLALLELARQDHGALDCCVVVILSHGCQASHLQFPGAVYGTDGCPVSVEKIVNIFNGTSCPSLGGKPKLFFIQACGGEQKDHGFEVASTSPEDESPGSNPEPDATPFQEGLRTFDQLSAISSLPTPSDIFVSYSTFPGFVSWRDPKSGSWYVETLDDIFEQWAHSEDLQSLLLRVANAVSVKGIYKQMPGCFNFLRKKLFFKTSASRA |
